Assay results published in patent US20140377287A1 (published 2014).

Assays:
human Trop-2 [1] = target: T1, human Trop-2 (human, UniProt P09758 27-323); assay: cell binding assay on Trop-2-expressing cells (cell line not stated)
T1 construct: whole, on cells; Type-I transmembrane glycoprotein; also called EGP-1; epithelial glycoprotein-1
T1 sequence (looked up): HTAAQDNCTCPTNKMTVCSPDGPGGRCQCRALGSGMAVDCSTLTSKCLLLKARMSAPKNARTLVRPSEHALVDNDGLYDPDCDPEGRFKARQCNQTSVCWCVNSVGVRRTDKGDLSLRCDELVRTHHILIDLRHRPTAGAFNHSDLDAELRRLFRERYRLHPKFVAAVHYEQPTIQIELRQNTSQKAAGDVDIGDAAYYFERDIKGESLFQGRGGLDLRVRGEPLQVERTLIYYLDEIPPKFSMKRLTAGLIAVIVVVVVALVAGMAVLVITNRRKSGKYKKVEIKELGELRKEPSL

human Trop-2 [2] = target: T1, human Trop-2; assay: cell binding on NCI-N87 cells, anti-mouse-HRP secondary, luminescence, 0.03 to 66 nM, 4 C

Molecule	Kd (human Trop-2 [1])	Kd (human Trop-2 [2])
hRS7-CL2-SN-38 (antibody)	1.2 nM	–
hRS7-CL2A-SN-38 (antibody)	1.2 nM	–
murine RS7 (antibody, V domains shown) VH: VKLQESGPELKKPGETVKISCKASGYTFTNYGMNWVKQAPGKGLKWMGWINTYTGEPTYTDDFKGRFAFSLETSATTAYLQINNLKSEDMATYFCARGGFGSSYWYFDVWGQGTTVTVSS VL: DIQLTQSHKFMSTSVGDRVSITCKASQDVSIAVAWYQQKPGQSPKLLIYSASYRYTGVPDRFTGSGSGTDFTFTISSVQAEDLAVYYCQQHYITPLTFGAGTKLELK	–	0.57 nM
